Reference: the supplement of paper PMC11246515
± gives the standard deviation of the averaged measurements.

Experiment: total protein half-life in vivo (active degradation + dilution); higher = more stable protein
[1] = E. coli NCM3722 delta-clpP delta-lon delta-hslV, growth: N-lim chemostat, doubling time 6 h
[2] = E. coli NCM3722 delta-clpP, growth: N-lim chemostat, doubling time 6 h
[3] = E. coli NCM3722 delta-hslV, growth: N-lim chemostat, doubling time 6 h
[4] = E. coli NCM3722 delta-smpB, growth: N-lim chemostat, doubling time 6 h
[5] = wild type E. coli NCM3722, growth: C-lim chemostat, doubling time 3 h
[6] = wild type E. coli NCM3722, growth: C-lim chemostat, doubling time 12 h
[7] = wild type E. coli NCM3722, growth: N-lim chemostat, doubling time 6 h
[8] = wild type E. coli NCM3722, growth: N-lim chemostat, doubling time 12 h
[9] = wild type E. coli NCM3722, growth: P-lim chemostat, doubling time 6 h
[10] = wild type E. coli NCM3722, growth: P-lim chemostat, doubling time 12 h
[11] = E. coli NCM3722 delta-lon, growth: N-lim chemostat, doubling time 6 h
[12] = wild type E. coli NCM3722, growth: C-lim chemostat, doubling time 6 h

| Sequence | total protein half-life in vivo [1] [h] | total protein half-life in vivo [2] [h] | total protein half-life in vivo [3] [h] | total protein half-life in vivo [4] [h] | total protein half-life in vivo [5] [h] | total protein half-life in vivo [6] [h] | total protein half-life in vivo [7] [h] | total protein half-life in vivo [8] [h] | total protein half-life in vivo [9] [h] | total protein half-life in vivo [10] [h] | total protein half-life in vivo [11] [h] | total protein half-life in vivo [12] [h] |
| --- | --- | --- | --- | --- | --- | --- | --- | --- | --- | --- | --- | --- |
| MKFTQRLSLRVRLTLIFLILASVTWLLSSFVAWKQTTDNVDELFDTQLMLFAKRLSTLDLNEINAADRMAQTPNRLKHGHVDDDALTFAIFTHDGRMVLNDGDNGEDIPYSYQREGFADGQLVGEDDPWRFVWMTSPDGKYRIVVGQEWEYREDMALAIVAGQLIPWLVALPIMLIIMMVLLGRELAPLNKLALALRMRDPDSEKPLNATGVPSEVRPLVESLNQLFARTHAMMVRERRFTSDAAHELRSPLTALKVQTEVAQLSDDDPQARKKALLQLHSGIDRATRLVDQLLTLSRLDSLDNLQDVAEIPLEDLLQSSVMDIYHTAQQAKIDVRLTLNAHSIKRTGQPLLLSLLVRNLLDNAVRYSPQGSVVDVTLNADNFIVRDNGPGVTPEALARIGERFYRPPGQTATGSGLGLSIVQRIAKLHGMNVEFGNAEQGGFEAKVSW | 5.9 ± 0.21 | 6.26 ± 0.56 | 6.38 ± 0.11 | 5.66 ± 0.13 | 3.19 | 14.6 ± 1.6 | 5.98 ± 0.52 | 14.08 ± 0.14 | 6.13 ± 0.39 | 12.4 ± 3.3 |  |  |
| MCELLGMSANVPTDICFSFTGLVQRGGGTGPHKDGWGITFYEGKGCRTFKDPQPSFNSPIAKLVQDYPIKSCSVVAHIRQANRGEVALENTHPFTRELWGRNWTYAHNGQLTGYKSLETGNFRPVGETDSEKAFCWLLHKLTQRYPRTPGNMAAVFKYIASLADELRQKGVFNMLLSDGRYVMAYCSTNLHWITRRAPFGVATLLDQDVEIDFSSQTTPNDVVTVIATQPLTGNETWQKIMPGEWRLFCLGERVV | 6.35 ± 0.88 | 5.84 ± 0.22 | 5.68 ± 0.45 | 5.67 ± 0.13 | 3.37 ± 0.54 | 12.6 ± 1.6 | 5.695 ± 0.045 | 12.2 ± 1.4 | 5.83 ± 0.3 | 12.5 ± 0.73 | 6.32 ± 0.5 | 6.2 ± 0.066 |
| MMILVTGGARSGKSRHAEALIGDSSQVLYIATSQILDDEMAARIEHHRQGRPEHWRTVERWQHLDELIHADINPNEVVLLECVTTMVTNLLFDYGGDKDPDEWDYQAMEQAINAEIQSLIAACQRCPAKVVLVTNEVGMGIVPESRLARHFRDIAGRVNQQLAAAANEVWLVVSGIGVKIK [P0AE76] | 4.52 | 3.9 | 4.32 | 4.68 |  | 10.5 | 3.85 | 8.3 | 5.94 | 9.83 ± 1.8 |  | 5.17 |
| MKKILTTPIKAEDLQDIRVGDVIYLTGTLVTCRDVCHRRLIELKRPIPYDLNGKAIFHAGPIVRKNGDKWEMVSVGPTTSMRMESFEREFIEQTGVKLVVGKGGMGPLTEEGCQKFKALHVIFPAGCAVLAATQVEEIEEVHWTELGMPESLWVCRVKEFGPLIVSIDTHGNNLIAENKKLFAERRDPIVEEICEHVHYIK [P0AC35] | 6.21 |  |  |  |  |  |  |  |  |  |  |  |
| MQVSRRQFFKICAGGMAGTTAAALGFAPSVALAETRQYKLLRTRETRNTCTYCSVGCGLLMYSLGDGAKNAKASIFHIEGDPDHPVNRGALCPKGAGLVDFIHSESRLKFPEYRAPGSDKWQQISWEEAFDRIAKLMKEDRDANYIAQNAEGVTVNRWLSTGMLCASASSNETGYLTQKFSRALGMLAVDNQARVUHGPTVASLAPTFGRGAMTNHWVDIKNANLVVVMGGNAAEAHPVGFRWAMEAKIHNGAKLIVIDPRFTRTAAVADYYAPIRSGTDIAFLSGVLLYLLNNEKFNREYTEAYTNASLIVREDYGFEDGLFTGYDAEKRKYDKSSWTYELDENGFAKRDTTLQHPRCVWNLLKQHVSRYTPDVVENICGTPKDAFLKVCEYIAETSAHDKTASFLYALGWTQHSVGAQNIRTMAMIQLLLGNMGMAGGGVNALRGHSNIQGLTDLGLLSQSLPGYMTLPSEKQTDLQTYLTANTPKPLLEGQVNYWGNYPKFFVSMMKAFFGDKATAENSWGFDWLPKWDKGYDVLQYFEMMKEGKVNGYICQGFNPVASFPNKNKVIGCLSKLKFLVTIDPLNTETSNFWQNHGELNEVDSSKIQTEVFRLPSTCFAEENGSIVNSGRWLQWHWKGADAPGIALTDGEILSGIFLRLRKMYAEQGGANPDQVLNMTWNYAIPHEPSSEEVAMESNGKALADITDPATGAVIVKKGQQLSSFAQLRDDGTTSCGCWIFAGSWTPEGNQMARRDNADPSGLGNTLGWAWAWPLNRRILYNRASADPQGNPWDPKRQLLKWDGTKWTGWDIPDYSAAPPGSGVGPFIMQQEGMGRLFALDKMAEGPFPEHYEPFETPLGTNPLHPNVISNPAARIFKDDAEALGKADKFPYVGTTYRLTEHFHYWTKHALLNAILQPEQFVEIGESLANKLGIAQGDTVKVSSNRGYIKAKAVVTKRIRTLKANGKDIDTIGIPIHWGYEGVAKKGFIANTLTPFVGDANTQTPEFKSFLVNVEKV | 5.155 ± 0.0061 | 4.77 ± 0.55 | 6.6 | 4.72 | > 4 | 11.4 ± 0.86 | 5.89 | 10.4 ± 0.35 | 4.79 ± 0.5 | 8.459 ± 0.046 | 5.502 ± 0.033 | 5.8 |
| MSEIKDVIVQGLWKNNSALVQLLGLCPLLAVTSTATNALGLGLATTLVLTLTNLTISTLRHWTPAEIRIPIYVMIIASVVSAVQMLINAYAFGLYQSLGIFIPLIVTNCIVVGRAEAFAAKKGPALSALDGFSIGMGATCAMFVLGSLREIIGNGTLFDGADALLGSWAKVLRVEIFHTDSPFLLAMLPPGAFIGLGLMLAGKYLIDERMKKRRAEAAAERALPNGETGNV | 2.66 ± 0.39 | 3.52 | 2.7 | 4.72 ± 0.73 | 2.72 ± 0.066 | 5.17 | 3.33 | 5.84 ± 1.2 | 3.64 |  | 2.38 ± 0.21 |  |
| MKYQLTALEARVIGCLLEKQVTTPEQYPLSVNGVVTACNQKTNREPVMNLSESEVQEQLDNLVKRHYLRTVSGFGNRVTKYEQRFCNSEFGDLKLSAAEVALITTLLLRGAQTPGELRSRAARMYEFSDMAEVESTLEQLANREDGPFVVRLAREPGKRENRYMHLFSGEVEDQPAVTDMSNAVDGDLQARVEALEIEVAELKQRLDSLLAHLGD |  | 5.48 ± 0.32 | 6.03 ± 0.02 | 5.16 ± 0.098 | 3.01 ± 0.35 | 9.65 ± 0.61 | 4.69 ± 0.64 | 10.6 ± 0.71 | 5.38 ± 0.72 | 12.8 ± 1.3 | 6.75 ± 0.25 | 6.003 ± 0.036 |
